Measured values published in patent US8008452B2, “Phosphorylated Ndr kinase” (Novartis Forschungesstiftung, Zweigniederlassung Friedrich …, priority 2002, dated 2011).

Experiments:
HA-NDR1 = HA-NDR1 kinase assay on 12CA5 immunoprecipitates from transfected, treated COS-1 cells; format: cell-based, human; details: COS-1 cells
Protocol: In some experiments, the cells were treated for 60 min with 1 microM okadaic acid in 0.1% N,N-dimethylformamide (DMF) (Alexis Corp.), 50 microM BAPTA-AM (1,2-bis (o-aminophenoxy) ethane-N,N,N′,N′-tetraacetic acid tetra (acetoxy-methyl)ester) in 0.1% diimethylsulfoxide (DMSO; Sigma), or 20 microM thapsigargin in 0.1% DMSO (Alomone) 24 hours after transfection.
Transfected and treated COS-1 cells were washed once with ice-cold PBS, and harvested by rubber policeman in 1 ml ice-cold PBS containing 1 mM Na3VO4 and 20 mM beta-glycerophosphate before lysis in 500 microliters of IP buffer (20 mM Tris-HCl pH 8.0, 150 mM NaCl, 1% Nonidet P-40, 10% glycerol, 1 mM Na3VO4, 20 mM beta-glycerolphosphate, 1 microM microcystin-LR, 50 mM NaF, 0.5 mM PMSF, 4 microM leupeptin, 1 mM benzamidine, and 1 tablet/10 ml IP of Complete protease inhibitors (Roche)). Lysates were centrifuged at 20 000 g for 20 min and triplicate aliquots (200 microg) of supernatant were precleared with protein A-Sepharose (Amersham Pharmacia Biotech) for 60 min and mixed subsequently for 3 h at 4° C. with 12CA5 antibody prebound to protein A-Sepharose (˜1 microg antibody bound to 2 microl beads). The beads were then washed twice with IP buffer, once for 10 min with IP buffer containing 1 M NaCl, once again for 10 min with IP buffer, and finally twice with 20 mM Tris-HCl pH 7.5 containing 4 microM leupeptin and 1 mM benzamidine. […] After 60 min incubation at 30° C., 15 microliters of supernatant were removed, and phosphate incorporation into the substrate peptide determined as described for GST-NDR1 above. […]
To test whether hMOB1 plays a role in NDR activation, myc-hMOB1 or the empty vector was cotransfected with HA-NDR1 in COS1 cells and treated with OA. […] The reactions were resolved on a 10% SDS PAGE and the radioactivity visualised by using a phosphoimager.

GST-NDR1 = GST-NDR1 kinase assay (peptide kinase assay); format: biochemical, human
Protocol: 1 microgram of purified recombinant GST-NDR1 wild type and mutants (without further treatment or autophosphorylated for 2 h in the presence or absence of 1 mM CaCl2 and […] (Sigma)) were assayed in 20 microliter of reaction mixture containing 20 mM Tris-HCl pH 7.5, 10 mM MgCl2, 1 mM DTT, 100 microM [gamma-^32P]ATP (˜0.5 microCi/microliter), and 1 mM NDR1 substrate peptide ([…]; SEQ ID NO:22). After 30 mins incubation at 30° C., reactions were stopped with 50 mM EDTA, and 10 microliters of reaction mixture were spotted onto 2 cm^2 squares of P81 phosphocellulose paper (Whatman). These were subsequently washed for 4×5 min and 3×20 min in 1% phosphoric acid and once in acetone before counting in a liquid scintillation counter. One unit of NDR1 activity was defined as the amount which catalyses the phosphorylation of 1 nmol peptide substrate in 1 min.
Specific activity of GST-NDR1 mutants was also measured by a peptide kinase assay as described above. For this purpose, 1 microgram of purified GST-NDR1 wild type and alanine mutants were left without further treatment or autophosphorylated for 2 h in the presence or absence of 1 mM CaCl2 and […].

myc-hMOB1 = assay: Co-immunoprecipitation of HA-NDR and myc-hMOB1 from COS-1 cells; format: binding, human; details: COS-1 cells treated with OA prior to lysis
Protocol: HA-tagged hNDR and myc-tagged hMOB1 were cotransfected in COS1 cells, which were stimulated with okadaic acid or solvent alone. After cell lysis and extract preparation, HA-NDR was immunoprecipitated and co-immunoprecipitated myc-hMOB1 detected or Myc-hMOB1 was immunoprecipitated and co-immunoprecipitated HA-NDR detected.
HA-NDR, wt and mutants, and myc-hMOB1 were cotransfected into COS-1 cells and the cells were treated with OA prior to lysis. HA-NDR was immunoprecipitated and the coimmunoprecipitated myc-hMOB1 detected. […] Furthermore, the two important in vivo phosphorylation sites of NDR, serine-281 in the activation segment and the hydrophobic motif site threonine-444 in the C-terminal regulatory domain were tested, as well as the threonine 74 site in the N-terminal regulatory domain, for their role in NDR-MOB interaction.
HA-NDR N-terminal point mutants and myc-mob1 were co-transfected into COS1 cells which were treated with OA prior to lysis. HA-NDR mutants were immunoprecipitated and coimmunoprecipitated myc-hMOB1 detected.
In this Example, the effect of treatment of COS1 cells with BAPTA-AM on the NDR-MOB Interaction was determined. […] HA-NDR was immunoprecipitated and co-immunoprecipitated myc-MOB1 detected. The kinase activity of the HA-NDR immunoprecipitates was measured in a peptide kinase assay.

B1: S281A: NDR1 alanine mutant of phosphorylation residue Ser281; GST fusion or HA-tagged (protein)
chain: MAMTGSTPCSSMSNHTKERVTMTKVTLENFYSNLIAQHEEREMRQKKLEKVMEEEGLKDEEKRLRRSAHARKETEFLRLKRTRLGLEDFESLKVIGRGAFGEVRLVQKKDTGHVYAMKILRKADMLEKEQVGHIRAERDILVEADSLWVVKMFYSFQDKLNLYLIMEFLPGGDMMTLLMKKDTLTEEETQFYIAETVLAIDSIHQLGFIHRDIKPDNLLLDSKGHVKLSDFGLCTGLKKAHRTEFYRNLNHSLPSDFTFQNMNSKRKAETWKRNRRQLAFATVGTPDYIAPEVFMQTGYNKLCDWWSLGVIMYEMLIGYPPFCSETPQETYKKVMNWKETLTFPPEVPISEKAKDLILRFCCEWEHRIGAPGVEEIKSNSFFEGVDWEHIRERPAAISIEIKSIDDTSNFDEFPESDILKPTVATSNHPETDYKNKDWVFINYTYKRFEGLTARGAIPSYMKAAK
modifications: left off: small tags and cut ends
notes: NDR1 alanine mutant of phosphorylation residue Ser281; GST fusion or HA-tagged
HA-NDR1; 1 microM okadaic acid 1 h
  kinase activity of HA-NDR1 variants, +OA: 0.1113
HA-NDR1; solvent alone 1 h
  kinase activity of HA-NDR1 variants, −OA: 0.0357
GST-NDR1; autophosphorylated 2 h in the absence of CaCl2 and S100B
  Specific activity of GST-NDR1 variants, −S100B: 0.514
GST-NDR1; autophosphorylated 2 h in the presence of 1 mM CaCl2 and 10 mM bovine S100B
  Specific activity of GST-NDR1 variants, +S100B: 0.952
GST-NDR1; compared with wild type
  kinase activity of GST-NDR1 mutant (in words): almost undetectable
GST-NDR1; left without further treatment
  Specific activity of GST-NDR1 variants, CTRL: 0.16
myc-hMOB1
  interaction of HA-NDR variant with myc-hMOB1: still interact with MOB1
